1 molecule from patent US8933202B2, “AXL antibodies” (U3 Pharma GmbH, priority 2007, dated 2015) can be followed below.

The subject of assay [1] is NCI-H292 lung cancer cells. As to the kind of experiment: Wound healing/scratch assay. Conditions: 10 μg/ml antibody, 24 h, compared to isotypic control antibody. Type of assay: cell-based, human. The source says: To examine the migration and proliferation rates of different cells and culture conditions, in vitro wound healing/scratch assays are being employed for many years. These assays generally involve growing a confluent cell monolayer first. A small area is then disrupted and a group of cells are being destroyed or displaced by scratching a line through the layer with, for example, a pipette tip. The open gap is then inspected microscopically over time as the cells move in and fill the damaged area (“healing”). In brief, 1.5×10^6 NCI-H292 lung cancer cells were seeded per well of a 12 well dish and cultured in normal growth medium (RPMI, 10% FCS). After 8 h, cells were rinsed with PBS and starved in low serum medium (RPMI, 0.5% FCS) over night for 24 h. Using a sterile 200 μl pipette tip, three separate uniform wounds per well were scratched through the confluent NCI-H292 cell monolayers. […] Cells were permitted to migrate into the area of clearing for 24 h, washed once with PBS and fixed with ice cold Methanol (100%) at −20° C. After cells were stained with crystal violet (0.5% in 20% Methanol), rinsed with water and dried over night, photos of the wounds were taken.

For the next assay, the target named is T1, AXL (Homo sapiens, UniProt P30530).
T1 sequence (P30530 26-894): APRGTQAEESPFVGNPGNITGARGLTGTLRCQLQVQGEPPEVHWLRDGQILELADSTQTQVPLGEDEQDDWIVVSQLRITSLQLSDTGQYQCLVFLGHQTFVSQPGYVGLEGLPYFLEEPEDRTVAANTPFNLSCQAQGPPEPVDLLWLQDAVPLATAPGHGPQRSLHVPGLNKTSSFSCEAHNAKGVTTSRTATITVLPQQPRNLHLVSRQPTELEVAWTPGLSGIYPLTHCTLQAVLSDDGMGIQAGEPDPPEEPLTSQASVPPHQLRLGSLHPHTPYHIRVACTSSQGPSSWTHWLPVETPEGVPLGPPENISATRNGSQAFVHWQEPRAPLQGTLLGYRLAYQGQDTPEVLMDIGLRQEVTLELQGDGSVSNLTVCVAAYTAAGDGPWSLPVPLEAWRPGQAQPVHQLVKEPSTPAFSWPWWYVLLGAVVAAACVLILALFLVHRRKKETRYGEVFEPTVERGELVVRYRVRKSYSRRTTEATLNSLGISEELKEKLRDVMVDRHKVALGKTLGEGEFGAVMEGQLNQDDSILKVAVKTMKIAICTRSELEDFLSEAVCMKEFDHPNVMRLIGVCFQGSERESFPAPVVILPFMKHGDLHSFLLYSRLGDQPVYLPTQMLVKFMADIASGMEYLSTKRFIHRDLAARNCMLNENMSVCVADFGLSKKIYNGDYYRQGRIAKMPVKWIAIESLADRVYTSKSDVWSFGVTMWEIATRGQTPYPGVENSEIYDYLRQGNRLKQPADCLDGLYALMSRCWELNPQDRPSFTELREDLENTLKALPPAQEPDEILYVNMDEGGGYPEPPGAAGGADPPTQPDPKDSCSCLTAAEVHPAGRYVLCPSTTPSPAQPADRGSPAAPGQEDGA
Briefly: Axl phosphorylation ELISA, rat versus chimeric antibody. Type of assay: cell-based. Set-up: endogenous in cells; host or cells: CaSki cervical cancer cells. On the procedure:
In order to investigate whether the rat anti-Axl antibodies of the invention and the corresponding chimeric anti-Axl antibodies of the invention were able to inhibit ligand Gas6-mediated Axl activation in vitro to similar extent, ELISA experiments on CaSki cervical cancer cells were performed. Gas6-mediated Axl activation was thereby detected by increased receptor tyrosine phosphorylation. In brief, on day 1, 3×10^4 cells per well were seeded in normal growth medium in flat-bottom 96 well plates. The next day, growth medium was replaced by serum-free medium to starve cells over night for 24 h. Also over night, black Maxi-Sorp 96 well plates (Nunc) were coated with mouse anti-phospho-tyrosine antibody 4G10 at 2 μg/ml PBS and 4° C. On day 3, the 4G10 antibody solution was removed and Maxi-Sorp wells were blocked with PBS, 0.5% BSA for at lest 4 h at room temperature. In parallel, cells were pre-incubated with 50 ng/ml, 100 ng/ml, 300 ng/ml, 750 ng/ml, 1 μg/ml, and 10 μg/ml of rat anti-Axl antibody 11B7 or chimeric anti-Axl antibody ch11B7 for 1 h at 37° C. and subsequently treated with or without 400 ng/ml Gas6 (R&D Systems) for 10 min at 37° C. […] Using a Victor plate reader (Perkin Elmer), the fluorescence of each well was collected at an excitation wavelength of 430 nm and an emission wavelength of 580 nm.
Background: An ELISA detects its analyte on a solid surface through an enzyme-linked reagent.

B1: 11B7: antagonistic rat anti-AXL monoclonal antibody, rat IgG1 (antibody, V domains shown)
VL: DIQMTQAPSSLPASLGDRVTITCRASQDIGNYLRWFQQKPGKSPRLMISGATNLAAGVPSRFSGSRSGSDYSLTISSLESEDMADYYCLQSKESPWTFGGGTKLELK
VH: EVQLQESGPGLVKPSQSLSLTCSVTGYSITSNYWGWIRKFPGDKMEWMGYITYSGSTSYNPSLKSRISITRDTSKNQFFLQLNSVTSEDTATYYCAITTFYYWGQGVMVTVSS
Regarding B1, the “re-population of the cleared area (wound closure)” value in assay [1] is “reduced the re-population of the cleared area”. For the same molecule, in the assay with AXL (50 ng/ml to 10 μg/ml antibody, 400 ng/ml Gas6, CaSki cervical cancer cells), the “ligand-induced Axl activation (relative Axl phosphorylation), concentration-dependent” value is “able to block ligand-induced activation of the receptor tyrosine kinase Axl to similar extent”. In the assay with AXL (same experimental settings, C-8161), the “ligand-induced Axl activation in melanoma cell line C-8161” value was “Comparable effects”.
